The domain aggregation screens of Martell et al. (2025)

Assay: soluble fraction after stress (log2 fold change); higher = more stays soluble; pooled small domains, quantitative proteomics
Conditions: stress: pH 4
Method in brief: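 Aggregation propensity is estimated from the fold change in each domain's soluble amount after acid stress. Pooled small-domain libraries were stressed at pH 4, and higher log2 values mean more stayed soluble.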

Row | Sequence | soluble fraction (log2)
1 | HMDRQIQITVAENEAGQRLDAFLAAKIPDMSRSYIQKLIEDGLILVNGQSTKGKVKTYSGMNIEVYMPE | 0.22
2 | HMDRRDEYHQHLLRLLLSGEIRDKDELQRRKVKLSGEYGLAGVPKNSETLALVPPDRLPEVLDILR | -0.289
3 | HMDRSIGDIIAELRDLSAEQVERVLAHQRETGVRFGEAAVALGYASKEDVLFALSQQFHYPYAPEE | -0.946
4 | HMDRSVTAAELRLAAMDLLARREHGSQELEAKLSRRFHKRHYDVELLRSVIEQLTVEGLLSDERFAVS | -1.07
5 | HMDRVTYPVSFNGKVRFQLELDAGMNAKEVETAALGHEKTAAQIEGKTIRKVIVVPGRIINIVV | -0.404
6 | HMDRWTPLVVAVLSRGSHRFGELRAAIGGITPKVLTDTLRSMERDGLITRDQAPGVPPRVDYALTPLGS | -0.126
7 | HMDSALKDDLNAFVKKLDVESQTLFMRRYFLGESVSSLASRFEMSEDNVGVKLFRIRAKLKKYLTGKGYD | -0.445
8 | HMDSAMMDLVMRVQLALFTKGYDVGIIDGKIGPKTRAQIKRYQSDNRLSSTGTLTTSLLTSLGIQ | 0.00457
9 | HMDSATDRVALKELLNTLSARERTIITLRYFSDQTQTQVAKSLGISQVQVSRLENAILQRLRKL | -0.271
10 | HMDSDELEAFRLITSVNGVGPKLGIAILSEFTAEKLTVFIASGDAKALTAASGVGIKLAQRIVLELKDKVG | -0.184
11 | HMDSDFIKIEVLFNERNRLDLKAMMEASGFTDRGQFLSIMADLTGDENWDRNLDRGDIFYLPRSFTI | -1.6
12 | HMDSDIGQQLKILLTVGTFMPSTELKAIAQQFGMKKPTDLKEWVELESDTQRIKGNPTKGYWINEINDL | -0.262
13 | HMDSEEVYQMTKHKMDAAQISVAKRIHINLVLVKLLELHHLGYDLRHYHAQHHAFIKRLNLPEYFRFD | -0.832
14 | HMDSEKVLTNLKEELVLQLSNIEPYGYVPSQYWYSKVQRVQSVQELGKYVDGDLEAFVMKYAEDWESQK | -0.951
15 | HMDSGFMRTTQSYTVARLAEIFRLSGEDYLAVLREYDGWYQDLTSTKDLIRKGSDVPVPEGV | -1.02
16 | HMDSGLEQAKTAALENAELETSQVTFIKAELDYDDGKKVYEIEFVTSAMKYEYQVKADDFSILEMSKETIE | -0.129
17 | HMDSHSAESVRQRIKDMIAAEASKSILSDDTIVENLKSEGIEIARRTVAKYRESLNIPSSIQRRRIARSEA | 0.0843
18 | HMDSILMPGVVNKELREALAILKNEGIGWADPEYASSTVTRNYVISTDPVEGIELAPGQKVRLVVSLGPKP | 0.153
19 | HMDSIQMKNNSILYYGNTAGYLDAKRNTAVVDPMFRTDEMESYLSEQKGLSVEWASGTYDRLT | -0.921
20 | HMDSLEIEEPITVKSLSAASGLKISDIIRKLMQEGIMATANQVIDREQAEAVLIDYNVDLVVKR | 0.0392
21 | HMDSLNWVEKIINTLPEQQRLIIQMRDIEQYEFAEIAKILEMNETAIRVALSRARKTIREFMIKTH | ≥ 0.43
22 | HMDSLSLTELRIDSASPWIGNRISDFSPYAGELVIMIIRGEETIVPNGDTIILDKDLLVIYSS | -1.39
23 | HMDSNFNYELVGFRLDDMGLNSSVIVKRNNQEFVIQKGDLLENKYLLNSVTKKNINFSYLGKNYQI | -0.731
24 | HMDSNPLSEREQEVLQLVAKGASNQTIAEQLFLSNGTIRNYMTAIFNKLNANNRTDAVRIARENGW | -0.24
25 | HMDSPVEEWANRGLAYDPSLVTETMAKLYAKQGQIGLARKAFKRLALIYPEKSVYFAFQLKKLSNN | 0.0712
26 | HMDSPVLTAEIKALIDKELEQNAVKLATGLKKQRKRATDIHDALIRQGHEVSYRTVVRYIRNKTAQTS | ≥ 0.43

Row | Sequence | soluble fraction (log2)
27 | HMDSTSEILKVIQNIVKKEDPYHPLSDDKISNLLNDLDYQISRRTVAKYRDILTIPSSSKRRKL | -0.0776
28 | HMDSVEMFSPILGMNANMDLDTLTQTRDKLLEKYKDDEQLIGLVNKTYDYFNEILLKQFLIEELEKNE | -0.207
29 | HMDSVFGVVTSSDGVKLRKEASTISKVLTVLPYGTEVDVDRIGSEWIRIVTDGGQKGYVSADYLAVREGER | -0.1
30 | HMDSVPEEQLRQLALDKAKEVKRWGQPVELAKMNAHDRRIIHINLQDDPEIETRSEGEGALKSVIISLKK | 0.135
31 | HMDSYADVLSDYRGKYKTNTISGLKGLRDKIREDMLAAADSLDFEKAALLRDEMNDLNKKIELKEKT | -0.486
32 | HMDTERLYAYAWQTHLKQFGLNISEEEIRQFVGVDDRIVHSFYAKTVPLDDFENTMFSLGEIIQQSL | -2.08
33 | HMDTFNVIARQEIDGILYEYKIMTVEDYKNQSPENLAVIYENIKAVMEQYDLSEDDADAILVDLLG | -1.51
34 | HMDTIRINSGSTVKEVAEYLGIPVPEVIKKLMSMGELATLTKTLSDDHIEVLAEEFEKKIKIVHVGEEAD | -0.61
35 | HMDTITDSYTLEKGKLRAKVMEYELPESKKKEYSATFEYRGVYYHMIGIIEKADFEEILKNLHFP | -0.53
36 | HMDTIVVAARSIQARQTLTESDLRVEEQEIGAASDKYYTDIAEAVGLVSSRRLSPGQPILRTM | -0.273
37 | HMDTLKDFISGVSIVFENKYSVGDNVTIGDFRGDVIELGMKTTKIRAYTGEVLIIPNHLVEKVINH | -0.665
38 | HMDTLRARQEAAYRFLSAIAGDWRNYEEANRALFAGDAARFQDLTESWPADVRDHARHLASAAFSS | -1.15
39 | HMDTNAIIGLRIKNLRTEKKYTLKYLSENTGLSIGFLSQLERGMTSIAIDSLDKISKVLDVELSSFFT | -0.14
40 | HMDTNELIDRYVNEVGQHLPRKTRADIEMELRSLLLDTLEEQSGGEPTPKMAAEVLREFGHPEEIAAQYH | -0.755
41 | HMDTRKKLEQIFKLFDKTGTGMVNIDEFKSVLKLFMEEIDEKFGNYFIAYFDENGDGKIEFEEFADVVL | -0.462
42 | HMDTSAHEVLSAIRSIIEDEDKRHPLSDEAITSRLSQQGYDIARRTVAKYRERLGLPVARLRRE | 0.376
43 | HMDVALEALDESDGAVRLQFSGALQTYLNDSTTAASLEAISKTFRAFYEAAGRPVDTLEVYAAGEPVT | -0.42
44 | HMDVDKQLDQLLAAMIPDKSLRQTIKTKAFNELVDNELADKDISSWTKQTMDVFMTRAEDMFGAM | -1.43
45 | HMDVEMLIDKYQLNDSEAEVLRFMKKNRQSLKTIGIRDVAKATYVSTATIINMAKKIGYSGYSELVFALGN | -0.319
46 | HMDVNAQAGYDKLQSNQLDGARHDYEQALKTDPNNVDTLLALAAIAQRQGRSADADGYRQRAIDAD | -0.245
47 | HMDVNHVIIDHKGNSIQAIIDSIDLDNVYYQSKIKKESEVIDIDKVYFIFNDFDRVYHYDWSYYENL | -0.468
48 | HMDVNLSIRSGETIGIIGSTGSAKSTLVQLIPRLYDTTEGEVLVGGVNVKNYDLEALRNSVAMVLQKN | -0.155
49 | HMDVPNLVGEEIKDVRRTLRHFQLEVIGEGSKIVSQVPKHGQRLPENTTIRVYLN | -0.0434
50 | HMDVPNLVGKTLEEAENELKKLNIRYNVTERADEAPKDTVIEQSPKPYEAMEPGTVVNLVISSGPA | -0.912
51 | HMDVQPHIYLRKLDQFWPADLHSLILYTLDGRRLWSADSGNIPALPHRASSLVILEATWDNGQRTRRKQFL | -0.116
52 | HMDVRKSISDLKALGLSDAAVTVYGTIGNKPVHIDKIVSELGIPVFKVLTALTQLEMKGLVTAMQGRMYVL | -0.168

Row | Sequence | soluble fraction (log2)
53 | HMDVSASEVGLTGRQTDVLSLMVKGRSNRDIAELLGLSEGTVKIHITAIFKALGVASRTQALVAAARLGLK | -0.212
54 | HMDVSLVEQTQRDILEYISKNNSNAQLPKEQEFVGLLGVSRVVVREALSRLRALGIIETKRKKGTVVVVPE | -0.31
55 | HMDWVAYGAELRRRRLLAGWSVAELSRRTNLSTSIIYQVEQARTRLRPSQLTLAKLAAALGMP | -0.0217
56 | HMDYAQAQRQAESAIALRPDVERLRLLLIYALQKQGKLREAEQAAADAIKSGLDTPALRQARANLRP | -0.205
57 | HMDYGSISFINWSIEVLSVIKTRLDRGDKIIDEVSGEKYTASSFEKFVRKNFSSYIFSQVYAEDHKK | -0.016
58 | HMDYHTIQTGDKGDEVLRLQQALAEYGYYEGDLDGRFGQQTRRAVERFQYSHGLTADGIAGRNTLSVLYD | -0.051
59 | HMDYIITHYPDNKRFETQVDGVVAFVQYRLSGDKLDIIHTIVPPAIGGRGIAAALVKYAYDYAIENGMK | -0.666
60 | HMDYKSKLQELVQTEKRTVEYKLVDESGPAHNKSFTFEVVISGIKYGSGTGASKKIAEQNAAKEALEKLA | 0.144
61 | HMDYKSTLQELVQTVKKSVTYEVIDEEGPSHNKTFTSIVKIDGIVMGKGTAGSKKASEQEAARDALSKR | -0.0966
62 | HMDYLYHNGKEIDQGSIMYKMEDYSDGIFELQSAKYADGTELDEKELEELESTQELIDWVMIDFVS | -1.99
63 | HMDYNSYGLTERELELVDYVLKGYSRKEMAEASGLKVNTIGSYMKKIYRKLNIHNRTELKERFI | -1.31
64 | HMDYNYLVFVTNTGPRSIAVEDLEMTVSDGKLVVSSGADGETFDLSTLTKMYFSDAAVVSINDV | -1.14
65 | HMDYQYILVDVKDRIATVTINRPEYSNAFARESYYEIADAMNTLGARDDVGVIVITGAGKHFSAGGDIKRF | -0.652
66 | HMDYYKILGLSTSATLDQIKKAFRQLAIEFHPDKNPNNPTAEDKFQRISEAYAVLSNPEKRAEYDRSY | -0.17
67 | HMEAAETAVVTGTIVNIRSGPTLDFEAFAQVKQGDRLPVLDKFYNWYYVKLPSGVNGWISGQLVRIEQ | -0.673
68 | HMEAELNSLVKTYENMKPKAAAQVFEELDMDVLLDVVERMKEKKLAPILAQVTPTRAKEITYELTQRR | -0.0962
69 | HMEAFDYLGRRTRDLLERQGWTTVPLVRDAYLAVPGGERLLQVPGFGRKSLREVRRWLWLQIGDPRFE | 0.114
70 | HMEAIYKKNKNLIHTVIRDNFPFLIDTADYEDAFQEGSIGLIRAIDRFDDGLEYKFSSYAYTAIRNQIA | -0.165
71 | HMEALGLSPRQVDVLRLLVEGRSNKMIMRELELSESTVKTHLQAIFRRLGVSSRTQAVVAAARLGL | -0.418
72 | HMEALSAREIEILQALETGASNRELAKMLFISEATVKTHLVHIYQKLGVGTRTAAITEARERRV | -0.237
73 | HMEANAYFDAYPDVAAEWARLSGSDEGKATLSAIGVTTPQQFAQYHYTTFGSKENRNAPVGYTP | -0.47
74 | HMEANPLTDREKEVLELVADGKNTKEIAQELSIKSGTVRNYISMILEKLEVKNRIEAITRSKEKGWF | -0.025
75 | HMEAPMPIFWRPQFRIGHDDIDADHRYLILLINTVELVLRFPDDPRNVELALTELRRYAEDHFEREER | 0.0123
76 | HMEAQAHYDAIYKAHPNADSIAQSAEFKAWVDAQPSVVRNAYWQLFDPKEGGTAEQIVEVFDAFVKSS | -1.83
